In patent publication JP2005325133A (dated 2005):
Each block holds one binder with its values, some of them ahead of it. cellulose membrane = not defined here

How the values were obtained:
[1] = molecular target: T1, 13-mer peptide, amino acids 61-73 of HLA-DR β chain (DRB1*15011), SEQ ID NO 82 (human, reading uncertain); experiment: SPOT peptide membrane
T1 construct: SPOT peptide on cellulose membrane (JERINI); also called 配列番号82; 61番目〜73番目
T1 peptide: Ac-WNSQKDILEQARA-{cellulose membrane}

[2] = molecular target: T2, 13-mer peptide, amino acids 65-77 of HLA-DR β chain (DRB1*15011), SEQ ID NO 84 (human, reading uncertain); experiment: SPOT peptide membrane, chemiluminescence (LumiImager)
T2 construct: SPOT peptide; also called 配列番号84; 65番目〜77番目
T2 peptide: Ac-KDILEQARAAVDT-{cellulose membrane}

[3] = molecular target: T3, 13-mer peptide, amino acids 63-75 of HLA-DR β chain (DRB1*15011), SEQ ID NO 83 (human, reading uncertain); experiment: as above
T3 construct: SPOT peptide; also called 配列番号83; 63番目〜75番目
T3 peptide: Ac-SQKDILEQARAAV-{cellulose membrane}

[4] = molecular target: T4, HLA-DR DRB1*15011/DRA*0101 forcibly expressed on L cells (ATCC CCL-1) (human, UniProt P01903 26-254; P01911 30-266); experiment: flow cytometry on transfected L cells
T4 construct: whole, on cells

SEQ ID NO 47 = molecular target: T5, SEQ ID NO 47 (human); experiment: peptide spot blot, antibody 1 μg/mL, chemiluminescence (LAS2000)
T5 construct: also called 配列番号47
T5 peptide: WNSAKDLLEQRRA

SEQ ID NO 28 = molecular target: T6, SEQ ID NO 28 (human); experiment: as above
T6 construct: One of 16 peptides covering the polymorphic variants of HLA-DR β chain 61-73; also called 配列番号28
T6 peptide: WNSQKDILEDERA

SEQ ID NO 38 = molecular target: T7, SEQ ID NO 38 (human); experiment: as above
T7 construct: One of 16 peptides covering the polymorphic variants of HLA-DR β chain 61-73; also called 配列番号38
T7 peptide: WNSQKDLLERRRA

SEQ ID NO 42 = molecular target: T8, SEQ ID NO 42 (human); experiment: as above
T8 construct: also called 配列番号42
T8 peptide: WNSQKDLLEQARA

SEQ ID NO 31 = molecular target: T9, SEQ ID NO 31 (human); experiment: as above
T9 construct: One of 16 peptides covering the polymorphic variants of HLA-DR β chain 61-73; also called 配列番号31
T9 peptide: WNSQKDILEDRRG

SEQ ID NO 37 = molecular target: T10, SEQ ID NO 37 (human); experiment: as above
T10 construct: One of 16 peptides covering the polymorphic variants of HLA-DR β chain 61-73; also called 配列番号37
T10 peptide: WNSQKDLLEDRRA

SEQ ID NO 36 = molecular target: T11, SEQ ID NO 36 (human); experiment: as above
T11 construct: One of 16 peptides covering the polymorphic variants of HLA-DR β chain 61-73; also called 配列番号36
T11 peptide: WNSQKDLLEQKRG

SEQ ID NO 44 = molecular target: T12, SEQ ID NO 44 (human); experiment: as above
T12 construct: also called 配列番号44
T12 peptide: ANSQKDLLEQRRA

SEQ ID NO 33 = molecular target: T13, SEQ ID NO 33 (human); experiment: as above
T13 construct: One of 16 peptides covering the polymorphic variants of HLA-DR β chain 61-73; also called 配列番号33
T13 peptide: WNSQKDILEQARA

SEQ ID NO 29 = molecular target: T14, SEQ ID NO 29 (human); experiment: as above
T14 construct: One of 16 peptides covering the polymorphic variants of HLA-DR β chain 61-73; also called 配列番号29
T14 peptide: WNSQKDILEQKRG

SEQ ID NO 39 = molecular target: T15, SEQ ID NO 39 (human); experiment: as above
T15 construct: One of 16 peptides covering the polymorphic variants of HLA-DR β chain 61-73; also called 配列番号39
T15 peptide: WNSQKDLLEDERA

SEQ ID NO 46 = molecular target: T16, SEQ ID NO 46 (human); experiment: as above
T16 construct: also called 配列番号46
T16 peptide: WNAQKDLLEQRRA

SEQ ID NO 43 = molecular target: T17, SEQ ID NO 43 (human); experiment: as above
T17 construct: also called 配列番号43
T17 peptide: WNSQKDLLEQRRG

SEQ ID NO 40 = molecular target: T18, SEQ ID NO 40 (human); experiment: as above
T18 construct: also called 配列番号40
T18 peptide: WNSQKDALEQRRA

SEQ ID NO 27 = molecular target: T19, SEQ ID NO 27 (human); experiment: as above
T19 construct: One of 16 peptides covering the polymorphic variants of HLA-DR β chain 61-73; also called 配列番号27
T19 peptide: WNSQKDFLEQARA

SEQ ID NO 32 = molecular target: T20, SEQ ID NO 32 (human); experiment: as above
T20 construct: One of 16 peptides covering the polymorphic variants of HLA-DR β chain 61-73; also called 配列番号32
T20 peptide: WNSQKDILEDKRA

SEQ ID NO 35 = molecular target: T21, SEQ ID NO 35 (human); experiment: as above
T21 construct: One of 16 peptides covering the polymorphic variants of HLA-DR β chain 61-73; also called 配列番号35
T21 peptide: WNSQKDLLEQARA

SEQ ID NO 41 = molecular target: T22, SEQ ID NO 41 (human); experiment: as above
T22 construct: also called 配列番号41
T22 peptide: WNSQKDLLEARRA

SEQ ID NO 34 = molecular target: T23, SEQ ID NO 34 (human); experiment: as above
T23 construct: One of 16 peptides covering the polymorphic variants of HLA-DR β chain 61-73; also called 配列番号34
T23 peptide: WNSQKDLLEQRRA

SEQ ID NO 26 = molecular target: T24, SEQ ID NO 26 (human); experiment: as above
T24 construct: One of 16 peptides covering the polymorphic variants of HLA-DR β chain 61-73; also called 配列番号26
T24 peptide: WNSQKDFLEDERA

SEQ ID NO 30 = molecular target: T25, SEQ ID NO 30 (human); experiment: as above
T25 construct: One of 16 peptides covering the polymorphic variants of HLA-DR β chain 61-73; also called 配列番号30
T25 peptide: WNSQKDILEDRRA

SEQ ID NO 24 = molecular target: T26, SEQ ID NO 24 (human); experiment: as above
T26 construct: One of 16 peptides covering the polymorphic variants of HLA-DR β chain 61-73; also called 配列番号24
T26 peptide: WNSQKDFLEDRRA

SEQ ID NO 45 = molecular target: T27, SEQ ID NO 45 (human); experiment: as above
T27 construct: also called 配列番号45
T27 peptide: WASQKDLLEQRRA

SEQ ID NO 25 = molecular target: T28, SEQ ID NO 25 (human); experiment: as above
T28 construct: One of 16 peptides covering the polymorphic variants of HLA-DR β chain 61-73; also called 配列番号25
T28 peptide: WNSQKDFLERRRA

SEQ ID NO 49 = molecular target: T29, SEQ ID NO 49 (human); experiment: peptide spot blot, chemiluminescence (LAS2000)
T29 construct: also called 配列番号49
T29 peptide: WNSQKALLEQRRA

SEQ ID NO 51 = molecular target: T30, SEQ ID NO 51 (human); experiment: peptide spot blot, chemiluminescence (LAS2000)
T30 construct: also called 配列番号51
T30 peptide: WNSQKDLLEQRAA

SEQ ID NO 50 = molecular target: T31, SEQ ID NO 50 (human); experiment: peptide spot blot, chemiluminescence (LAS2000)
T31 construct: also called 配列番号50
T31 peptide: WNSQKDLLAQRRA

SEQ ID NO 48 = molecular target: T32, SEQ ID NO 48 (human); experiment: peptide spot blot, chemiluminescence (LAS2000)
T32 construct: also called 配列番号48
T32 peptide: WNSQADLLEQRRA

[5] = molecular target: T1, 13-mer peptide, amino acids 61-73 of …; experiment: SPOT peptide membrane, chemiluminescence (LumiImager)

binding result [1]: binds
binding result [2]: binds
binding result [3]: binds
B1: human anti-HLA-DR monoclonal antibody HD4 (hybridoma HD4, FERM BP-7771) (antibody, V domains shown)
VH: EVQLLESGGGLVQPGGSLRLSCAASGFTFSSYAMTWVRQAPGKGLEWVSGISGGGDSTYYADSVKGRFTISRDNSKNTLYLQMNSLRAEDTAVYYCARDHGSGSYYPYWFDYWGQGTLVTVSS
VL: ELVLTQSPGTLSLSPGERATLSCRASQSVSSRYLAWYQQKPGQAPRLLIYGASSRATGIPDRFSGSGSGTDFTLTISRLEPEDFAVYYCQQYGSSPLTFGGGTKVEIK
notes: Human IgG with kappa light chain from a KM mouse hybridoma

binding result [4]: binds
binding result (SEQ ID NO 47): binds
binding result (SEQ ID NO 28): binds
binding result (SEQ ID NO 38): binds
binding result (SEQ ID NO 42): binds
binding result (SEQ ID NO 31): binds
binding result (SEQ ID NO 37): binds
binding result (SEQ ID NO 36): binds
binding result (SEQ ID NO 44): binds
binding result (SEQ ID NO 33): binds
binding result (SEQ ID NO 29): binds
binding result (SEQ ID NO 39): binds
binding result (SEQ ID NO 46): binds
binding result (SEQ ID NO 43): binds
binding result (SEQ ID NO 40): binds
binding result (SEQ ID NO 27): binds
binding result (SEQ ID NO 32): binds
binding result (SEQ ID NO 35): binds
binding result (SEQ ID NO 41): binds
binding result (SEQ ID NO 34): binds
binding result (SEQ ID NO 26): binds
binding result (SEQ ID NO 30): binds
binding result (SEQ ID NO 24): binds
binding result (SEQ ID NO 45): binds
binding result (SEQ ID NO 25): binds
binding result (SEQ ID NO 49): no binding (tested: 1μg/mL)
binding result (SEQ ID NO 51): no binding (tested: 1μg/mL)
binding result (SEQ ID NO 50): no binding (tested: 1μg/mL)
binding result (SEQ ID NO 48): no binding (tested: 1μg/mL)
binding result [5]: binds
binding result [2]: binds
binding result [3]: binds
B2: human anti-HLA-DR monoclonal antibody HD8 (hybridoma HD8, FERM BP-7773) (antibody, V domains shown)
VH: QVQLQHSGPGLVKPSQTLSLTCAISGDSVSSNSASWNWIRQSPSRGLEWLGRTYYRSKWYNDYAVSVKSRIVINPDTSKNQFSLQLNSVTPEDTAVYYCARENFYGSETCHKKYYCYGMDVWGQGTTVTVSS
VL: AIQLTQSPSSLSASVGDRVTITCRASQGISSALAWYQQKPGKAPKLLIYDASSLESGVPSRFSGSGSGTDFTLTISSLQPEDFATYYCQQFNSFPLTFGGGTKVEIK
notes: as for B1
